Laboratory results taken from the supplement of paper PMC9170038.

Experiments:
MS2 coat protein = test: apparent KD of MS2 coat protein; higher = weaker reporter binding; details: Eterna round: R107
Experimental: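 RNA-MaP round R107: designed RNA switches with theophylline, tryptophan, arginine or FMN aptamers are transcribed on-chip within common flanks. They are titrated with SNAP-549-labelled MS2 coat protein in RNA-MaP buffer (100 mM Tris pH 7.5, 80 mM KCl, 4 mM MgCl2), without ligand or with the indicated ligand. Median apparent KD per design.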

[1] = tested on: K4 kissing-loop RNA reporter; test: apparent KD of K4 kissing-loop reporter; higher = weaker reporter binding; details: Eterna round: R107;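 note: bound reporter read as fluorescence of individual clusters on recovered sequencing chips by microscopy, with normalized cluster intensities fitted with a binding model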
Experimental: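 RNA-MaP round R107: designed RNA switches with theophylline, tryptophan, arginine or FMN aptamers are transcribed on-chip within common flanks. They are titrated with a labelled K4 kissing-loop RNA reporter in RNA-MaP buffer (100 mM Tris pH 7.5, 80 mM KCl, 4 mM MgCl2), without ligand or with the indicated ligand. Median apparent KD per design.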

[2] = input ligand: theophylline 20 uM
[3] = input ligand: theophylline 2 mM
[4] = input ligand: tryptophan 2.4 mM

| Sequence | apparent KD of MS2 coat protein (MS2 coat protein; input ligand: arginine 13.2 mM) | apparent KD of MS2 coat protein (MS2 coat protein; input ligand: none) | apparent KD of MS2 coat protein (MS2 coat protein; [2]) | apparent KD of MS2 coat protein (MS2 coat protein; [3]) | apparent KD of MS2 coat protein (MS2 coat protein; [4]) | apparent KD of K4 kissing-loop reporter ([1]; input ligand: FMN 200 uM) | apparent KD of K4 kissing-loop reporter ([1]; input ligand: arginine 13.2 mM) | apparent KD of K4 kissing-loop reporter ([1]; input ligand: none) | apparent KD of K4 kissing-loop reporter [1, 2] | apparent KD of K4 kissing-loop reporter [1, 4] |
| --- | --- | --- | --- | --- | --- | --- | --- | --- | --- | --- |
| AAAAUAUAGACGGCCGCCACUAUAAUCAUGAGGAACAUGAGGAUCACCCAUGUAUGAGGAUCACCUAGGACCGGGUCAUAUAAAA [#24 Exclusion Tryptophan B] | 14.2 nM | 23.6 nM | 31.3 nM | 29.5 nM | 25.6 nM |  |  |  |  |  |
| AAACAUGACAUGGAUACCAGACACAUGAGGAUCACCCAUGUUGAGGAUCACCCAUGUCCCGUCCCUUGGCAGCCAGCAUGAGGAU [Exclusion Theophylline B 2] | 8.96 nM |  | 11.6 nM |  | 8.83 nM |  |  |  |  |  |
| AAACAUGAGGAUCACCCAUGUUCUCCUGUCCGAGGACCGGUACGGCCGCCACUCGGUUCUCGGGAGGAUGGUCAAAGACUAUCCA [Omei Trp A SS B v8] | 12 nM |  | 16.9 nM | 13.5 nM |  |  |  |  |  |  |
| AAACAUGAGGCGGCCGCCACUGUAUGAACAUGAGGAUCACCCAUGUAUGUACCCAUGUGUGUACACAGGACCGGGCCAUGUGGAU [Exclusion Tryptophan B 4] | 24.8 nM |  | 32.3 nM | 27.8 nM |  |  |  |  |  |  |
| AAACGAGAGACAGAUACCAGCGCAGGAACGGAGUAUGGUGACAUGAGGAUCACCCAUGUGCGCCCUUGGCAGCUGAGCCGUAUUG [theeternabot_exclusion_MS2_Theo_B_37] | 30 nM |  | 43.3 nM |  | 33.5 nM |  |  |  |  |  |
| AAACUGGGUGUAAAAUAAAUAAUCACUGAUACCAGACUAUUUUAUGUCCCUUGGCAGCAGAAACAUGAGGAUCACCCAUGUAAUA [JR_Nu_ExcTheophyA_Sub025] | 21.2 nM |  | 25.3 nM |  | 26.7 nM |  |  |  |  |  |
| AAAGUUGAUGAGUUGUGUUUGUGUUCGGAAGGAGCGGGAAUUAUCUCAGGUAGGUCGCCGAACAUGAGGAUCACCCAUGUAUAAA [XArg-A 18 NuV2 original #dotplot2>1] | 40.2 nM | 98.7 nM | 80.1 nM | 206 nM | 82.6 nM |  |  |  |  |  |
| AAAUCAGUCUGAAGGAGCGUCACAUGAGGAUCACCCAUGUACAUGAGGAUCACCCAUGUGUGACAGGUAGGUCGCAGAGGAUACC [Exclusion Arginine B GF 4] | 125 nM | 169 nM | 168 nM | 207 nM | 213 nM |  |  |  |  |  |
| AAAUGAAGGCGAAGGAGCGCGAACAUGAGGAUCACCCAUGUGUAUGUAUGUAGUCAUGUAUCGCAGGUAGGUCGCGCUGUUACAU [Exclusion Arginine B] | 106 nM | 278 nM | 276 nM | 352 nM | 271 nM |  |  |  |  |  |
| AAAUGAAGGCGAAGGAGCGGGAACAUGAGGAUCACCCAUGUGUAUGUAUGUAGUCAUGUAUCUCAGGUAGGUCGCGCUGUUACAU [Exclusion Arginine B 2] | 80 nM | 185 nM | 178 nM | 207 nM | 106 nM |  |  |  |  |  |
| AAAUUAUCGGCGGCCGCCACUAGAGUUAGGCUUAUGUACUGGGUAACAUGAGGAUCACCCAUGUAUAGGACCGGGCCAUAAUAAA [Same State - Tryptophan B (Freestyle 4)] | 38.7 nM | 55.2 nM | 88.9 nM | 57.5 nM | 72.1 nM |  |  |  |  |  |
| AACAUCACAACGGCCGCCACUGCACAUGACAACAUGAGGAUCACCCAUGUGGAUCACCCAUGUCCCAGGACCGGGUUAUGAGGAU [Same State - Tryptophan B #1] | 23.7 nM |  | 39.9 nM | 33.6 nM |  |  |  |  |  |  |
| AACAUGAGGAUCACCCAUGUAUUGGGUGAUACCAGCCUGAAUAAUGGCCCUUGGCAGCACCGCGCUAACUUUAUGUCUGCGAAAC [Erterean] | 87.3 nM |  | 456 nM |  | 118 nM |  |  |  |  |  |
| AACAUGAGGAUCACCCAUGUCCUCGUGAUUCGAGGACCGGUACGGCCGCCACUCGGUCCUCGCGAGGAGGAGUCAAAGACUCCAA [Omei Trp A SS A v1] | 98 nM | 144 nM | 229 nM | 204 nM | 137 nM |  |  |  |  |  |
| AACAUGAGGAUCACCCAUGUGUCCUCGAAACGAGGACCGGUACGGCCGCCACUCGAAGCAUGUUGACGAAAAGUCAGCAUGCAAA [Mat - Exclusion - Trytophan A - D14] | 96.4 nM |  | 292 nM | 353 nM |  |  |  |  |  |  |
| AACAUGGGAUUAAAAUAAAUAAUAACUGAUACCAGACUAUAUAAUGUCCCUUGGCAGCAGAUACAUGAGGAUCACCCAUGUAUUA [JR_Nu_ExcTheophyA_Sub023] | 12.2 nM |  | 14.9 nM |  | 12.8 nM |  |  |  |  |  |
| AACUGAAGCACCUUAUGCGGCGGCAAAACCCGAGGACCGGUACGGCCGCCACUCGAGUCGCAACAUGAGGAUCACCCAUGUGUAU [theeternabot_exclusion_MS2_Trp_A_30] | 32.5 nM |  | 55.8 nM | 78.8 nM |  |  |  |  |  |  |
| AAGAAAACAUGAGCAAAGCUCAUGUGCGAAGGAGCGGCGGAAACGCCAGGUAGGUCGCGCACAUGAGCAUCAGCCAUGUGUAUCA [Omei Arginine B SS A v3] | 43.5 nM | 36.7 nM | 76.9 nM | 101 nM | 19.4 nM |  |  |  |  |  |
| AAGAGACAUGAGGAUCACCCAUGUGUUGAUACCAGAAACACAAAGUUCCCUUGGCAGCAAAUCUGAGCGAAACGAUCUAGAGCGC [theeternabot_sameState_MS2_Theo_A_30] | 43.3 nM |  | 84.9 nM |  | 70.6 nM |  |  |  |  |  |
| AAGAUACUCUGAAGGAGCGGCAUAAAACAUGAGGAUCACCCAUGUGCGCGGGUGUAAUUAUGCCAGGUAGGUCGCAGAGUAUUUA [#03 Same State - Arginine B] | 168 nM | 401 nM | 373 nM | 629 nM | 412 nM |  |  |  |  |  |
| AAGCGCACAUGAGGAUCACCCAUGUGCGGCCGAGGACCGGUACGGCCGCCACUCGGAACUAGAAAUAGGAACGGGUAGUGCGCAA [TryptophanA Sol_1] | 10.6 nM | 11.7 nM | 13.3 nM | 13.6 nM | 10.9 nM |  |  |  |  |  |
| AAGCUGCCAAGAACAUGGGUGAAAUGUGAUACCAGCUAGGAAACUAGCCCUUGGCAGCACAUGAGGAUCACCCAUGUAAUAAUAA [(T)'-(M)'-(T1)-(T2)-(M1)-(M2)_Design2_2/19/17] | 75.7 nM |  | 264 nM |  | 377 nM |  |  |  |  |  |
| AAGGGUGAGUCUCUAAUCCGUUUGACGGAUACCAGCGAGAGAUAUCGCCCUUGGCAGCCGACGACAUGAGGAUCACCCAUGUAAA [Exclusion - Theophylline A] | 17 nM |  | 22 nM |  | 14 nM |  |  |  |  |  |
| UUUUUAUGCAGUGAUGUUGCUAAUAUAACAGAGGAUAUGCAUUAAUGCAGAAGGCUGAAAUACUAUACUUUAAUAUAUUAAAUUU [JR_SSFMNA_Sub015] |  |  |  |  |  | 94.3 nM | 132 nM | 126 nM | 155 nM | 99.5 nM |
| UUUUUAUUCAGUGAUGUUGAAUUUAUAUCAGAGGAUAUGCAUAAAAGCAGAAGGCUGAAAUACUAUACUUUAAUAAAUUAUAUUU [JR_SSFMNA_Sub017] |  |  |  |  |  | 249 nM | 326 nM | 320 nM | 370 nM | 217 nM |
| UUUUUGGUUUAGAGUGAUGUUCCUUGUUUUCGAGGACCGGUACGGCCGCCACUCGAAAAGAAAAGAAAAGAAAAGAGUGAUGUUU [BDazzled - #1 SS Tryptophan A] |  |  |  |  |  | 342 nM | 252 nM | 362 nM | 311 nM | 258 nM |
